Measurements reported in PMC9965349 (Viruses, 2023).
Like-named read-outs stand apart in the source and are kept apart here. Residues, ends and D or L forms follow the SMILES beside them.

Columns and labels:
[1] = molecular target: PEDV S1 protein (Porcine epidemic diarrhea virus, UniProt Q91AV1); assay: SPR kinetic measurement (Biacore X100, CM5 chip); assay type: binding
[2] = test system: Vero cells; assay: Cytotoxicity assay (CCK-8); assay type: cell-based, African green monkey
[3] = molecular target: T1, porcine epidemic diarrhea virus S protein (PEDV-S1) (porcine epidemic diarrhea virus); assay: ELISA; settings: both partners purified
T1 chain: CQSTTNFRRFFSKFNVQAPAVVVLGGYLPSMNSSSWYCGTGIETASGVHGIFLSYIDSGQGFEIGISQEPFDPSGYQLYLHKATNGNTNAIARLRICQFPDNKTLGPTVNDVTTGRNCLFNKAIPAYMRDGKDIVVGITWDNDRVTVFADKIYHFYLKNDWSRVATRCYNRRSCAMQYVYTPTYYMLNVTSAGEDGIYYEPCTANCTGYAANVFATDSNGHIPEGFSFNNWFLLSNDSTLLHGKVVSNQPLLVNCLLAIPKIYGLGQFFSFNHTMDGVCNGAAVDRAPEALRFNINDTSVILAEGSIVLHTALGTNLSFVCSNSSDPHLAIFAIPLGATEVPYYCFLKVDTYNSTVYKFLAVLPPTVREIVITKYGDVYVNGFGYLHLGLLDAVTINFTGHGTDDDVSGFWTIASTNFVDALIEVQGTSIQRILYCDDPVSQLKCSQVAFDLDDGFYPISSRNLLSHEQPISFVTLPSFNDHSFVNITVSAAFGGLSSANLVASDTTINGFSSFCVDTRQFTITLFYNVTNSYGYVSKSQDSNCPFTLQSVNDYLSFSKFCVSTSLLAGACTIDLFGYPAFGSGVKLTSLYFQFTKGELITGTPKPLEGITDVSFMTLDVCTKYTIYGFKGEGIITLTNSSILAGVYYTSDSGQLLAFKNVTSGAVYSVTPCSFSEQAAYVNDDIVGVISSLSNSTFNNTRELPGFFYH

[4] = molecular target: T1, porcine epidemic diarrhea virus S …; assay: SPR; settings: both partners purified
[5] = SPR, 1:1 binding fit, peptide 0.78125-25 μM, HBS-EP pH 7.4, 30 μL/min, 120 s association, 120 s dissociation

Molecule | Kd [1] [nM] | P/N value [3] | Kd [4] [nM] | koff [4] [s⁻¹] | kon [4] [M⁻¹ s⁻¹] | other results
C[C@H](NC(=O)[C@H](CCC(=O)O)NC(=O)[C@H](CCCCN)NC(=O)[C@H](Cc1c[nH]c2ccccc12)NC(=O)[C@@H](N)Cc1ccccc1)C(=O)N[C@@H](CCCCN)C(=O)O [compound 110616] (H-FWKEAK-OH) | 772 | – | – | – | – | –
N=C(N)NCCC[C@H](NC(=O)[C@H](CCCCN)NC(=O)[C@H](CO)NC(=O)[C@H](CCCCN)NC(=O)[C@H](Cc1c[nH]c2ccccc12)NC(=O)[C@@H](N)Cc1ccccc1)C(=O)O [compound 110766] | 216 | – | – | – | – | Cell viability (CCK-8) ([2]; 0.78125-400 µM, 24 h at 37 °C, normalized to control without peptide): over 90%; Cytotoxicity (in words) ([2]; CCK-8): not toxic to vero cells
FWKQNKFLFWKQNKCL [compound 110490] | – | – | – | – | – | Ka [1, 5]: 5743 M⁻¹ s⁻¹; Kd [1, 5]: 0.03522 s⁻¹
N=C(N)NCCC[C@H](NC(=O)[C@H](CC(N)=O)NC(=O)[C@H](Cc1ccccc1)NC(=O)[C@H](Cc1c[nH]cn1)NC(=O)[C@@H](N)Cc1c[nH]c2ccccc12)C(=O)N1CCC[C@H]1C(=O)O [compound 115042] (H-WHFNRP-OH) | 6520 | – | – | – | – | –
FWKQNKFLFWKQNKCL [peptide 110490] | – | > 67.9 | 1500 | 0.0352 | 5740 | –
WHFNRP [peptide 115042] | – | > 67.9 | 6520 | 0.0225 | 3450 | –
FWKSKR [peptide 110766] | – | – | 216 | – | – | –
FWKEAK [peptide 110616] | – | > 67.9 | 772 | 0.0236 | 30500 | –
